The source of these data is publication PMC5081176.

Holding throughout (experiment): purified protein
Holding throughout (type): biochemical, Homo sapiens

Substrate in data set [1]: Nc1nc2c(ncn2[C@H]2C[C@H](O)[C@@H](COP(=O)(O)OP(=O)(O)OP(=O)(O)O)O2)c(=O)[nH]1
To be noted: opposite O2-Me-dT template, Mg2+, pH 8.0, 37 °C.

Substrate in data set [2]: Nc1ccn([C@H]2C[C@H](O)[C@@H](COP(=O)(O)OP(=O)(O)OP(=O)(O)O)O2)c(=O)n1
The following applies: opposite O2-Me-dT template, Mg2+, pH 8.0, 37 °C.

Substrate in data set [3]: Nc1ncnc2c1ncn2[C@H]1C[C@H](O)[C@@H](COP(=O)(O)OP(=O)(O)OP(=O)(O)O)O1
To be noted: opposite undamaged template dT (P15/T24), Mg2+, pH 8.0, 37 °C.

B1: pol η (Homo sapiens) (protein)
chain: MATGQDRVVALVDMDCFFVQVEQRQNPHLRNKPCAVVQYKSWKGGGIIAVSYEARAFGVTRSMWADDAKKLCPDLLLAQVRESRGKANLTKYREASVEVMEIMSRFAVIERASIDEAYVDLTSAVQERLQKLQGQPISADLLPSTYIEGLPQGPTTAEETVQKEGMRKQGLFQWLDSLQIDNLTSPDLQLTVGAVIVEEMRAAIERETGFQCSAGISHNKVLAKLACGLNKPNRQTLVSHGSVPQLFSQMPIRKIRSLGGKLGASVIEILGIEYMGELTQFTESQLQSHFGEKNGSWLYAMCRGIEHDPVKPRQLPKTIGCSKNFPGKTALATREQVQWWLLQLAQELEERLTKDRNDNDRVATQLVVSIRVQGDKRLSSLRRCCALTRYDAHKMSHDAFTVIKNCNTSGIQTEWSPPLTMLFLCATKFSASAPSSSTDITSFLSSDPSSLPKVPVTSSEAKTQGSGPAVTATKKATTSLESFFQKAAERQKVKEASLSSLTAPTQAPMSNSPSKPSLPFQTSQSTGTEPFFKQKSLLLKQKQLNNSSVSSPQQNPWSNCKALPNSLPTEYPGCVPVCEGVSKLEESSKATPAEMDLAHNSQSMHASSASKSVLEVTQKATPNPSLLAAEDQVPCEKCGSLVPVWDMPEHMDYHFALELQKSFLQPHSSNPQVVSAVSHQGKRNPKSPLACTNKRPRPEGMQTLESFFKPLTH
B1: in the data set “purified protein [1]”, the Km came to 38.4 ± 1.8 µM, the kcat amounted to 0.00065 ± 1.67e-05 s⁻¹ and the kcat/Km turned out to be 17.5 ± 0.667 M⁻¹ s⁻¹. Further, in “purified protein [2]”, the Km is 130.2 ± 11.4 µM, the kcat is 0.00113 ± 5e-05 s⁻¹ and the kcat/Km worked out at 8.67 ± 0.333 M⁻¹ s⁻¹. In “purified protein [3]”, the Km amounted to 5.3 ± 0.3 µM, the kcat came to 0.817 ± 0.0333 s⁻¹ and the catalytic efficiency (kcat/Km) stood at 154000 ± 3830 M⁻¹ s⁻¹.

B2: pol κ (Homo sapiens) (protein)
chain: MDSTKEKCDSYKDDLLLRMGLNDNKAGMEGLDKEKINKIIMEATKGSRFYGNELKKEKQVNQRIENMMQQKAQITSQQLRKAQLQVDRFAMELEQSRNLSNTIVHIDMDAFYAAVEMRDNPELKDKPIAVGSMSMLSTSNYHARRFGVRAAMPGFIAKRLCPQLIIVPPNFDKYRAVSKEVKEILADYDPNFMAMSLDEAYLNITKHLEERQNWPEDKRRYFIKMGSSVENDNPGKEVNKLSEHERSISPLLFEESPSDVQPPGDPFQVNFEEQNNPQILQNSVVFGTSAQEVVKEIRFRIEQKTTLTASAGIAPNTMLAKVCSDKNKPNGQYQILPNRQAVMDFIKDLPIRKVSGIGKVTEKMLKALGIITCTELYQQRALLSLLFSETSWHYFLHISLGLGSTHLTRDGERKSMSVERTFSEINKAEEQYSLCQELCSELAQDLQKERLKGRTVTIKLKNVNFEVKTRASTVSSVVSTAEEIFAIAKELLKTEIDADFPHPLRLRLMGVRISSFPNEEDRKHQQRSIIGFLQAGNQALSATECTLEKTDKDKFVKPLEMSHKKSFFDKKRSERKWSHQDTFKCEAVNKQSFQTSQPFQVLKKKMNENLEISENSDDCQILTCPVCFRAQGCISLEALNKHVDECLDGPSISENFKMFSCSHVSATKVNKKENVPASSLCEKQDYEAHPKIKEISSVDCIALVDTIDNSSKAESIDALSNKHSKEECSSLPSKSFNIEHCHQNSSSTVSLENEDVGSFRQEYRQPYLCEVKTGQALVCPVCNVEQKTSDLTLFNVHVDVCLNKSFIQELRKDKFNPVNQPKESSRSTGSSSGVQKAVTRTKRPGLMTKYSTSKKIKPNNPKHTLDIFFK
Turning to B2, in “purified protein [1]”, the Km was 64 ± 12 µM, the kcat came out at 0.000917 ± 6.67e-05 s⁻¹ and the kcat/Km was 14.3 M⁻¹ s⁻¹. Besides, in “purified protein [2]”, the Michaelis constant (Km) stood at 160 ± 30 µM, the turnover number (kcat) was 0.00112 ± 0.0001 s⁻¹ and the kcat/Km turned out to be 6.83 M⁻¹ s⁻¹. In the data set “purified protein [3]”, the Km worked out at 1.4 ± 0.1 µM and the kcat/Km came to 53300 M⁻¹ s⁻¹.

B3: pol ι (Homo sapiens) (protein)
chain: MEKLGVEPEEEGGGDDDEEDAEAWAMELADVGAAASSQGVHDQVLPTPNASSRVIVHVDLDCFYAQVEMISNPELKDKPLGVQQKYLVVTCNYEARKLGVKKLMNVRDAKEKCPQLVLVNGEDLTRYREMSYKVTELLEEFSPVVERLGFDENFVDLTEMVEKRLQQLQSDELSAVTVSGHVYNNQSINLLDVLHIRLLVGSQIAAEMREAMYNQLGLTGCAGVASNKLLAKLVSGVFKPNQQTVLLPESCQHLIHSLNHIKEIPGIGYKTAKCLEALGINSVRDLQTFSPKILEKELGISVAQRIQKLSFGEDNSPVILSGPPQSFSEEDSFKKCSSEVEAKNKIEELLASLLNRVCQDGRKPHTVRLIIRRYSSEKHYGRESRQCPIPSHVIQKLGTGNYDVMTPMVDILMKLFRNMVNVKMPFHLTLLSVCFCNLKALNTAKKGLIDYYLMPSLSTTSRSGKHSFKMKDTHMEDFPKDKETNRDFLPSGRIESTRTRESPLDTTNFSKEKDINEFPLCSLPEGVDQEVFKQLPVDIQEEILSGKSREKFQGKGSVSCPLHASRGVLSFFSKKQMQDIPINPRDHLSSSKQVSSVSPCEPGTSGFNSSSSSYMSSQKDYSYYLDNRLKDERISQGPKEPQGFHFTNSNPAVSAFHSFPNLQSEQLFSRNHTTDSHKQTVATDSHEGLTENREPDSVDEKITFPSDIDPQVFYELPEAVQKELLAEWKRAGSDFHIGHK
In the case of B3, in the data set “purified protein [1]”, the Michaelis constant (Km) was found to be 46 ± 2 µM, the kcat was 0.0019 ± 3.33e-05 s⁻¹ and the kcat/Km came out at 41.7 ± 1.67 M⁻¹ s⁻¹. In “purified protein [2]”, the Km is 93 ± 14 µM, the kcat came to 0.00102 ± 6.67e-05 s⁻¹ and the specificity constant (kcat/Km) stood at 10.8 ± 1 M⁻¹ s⁻¹. Moreover, in the data set “purified protein [3]”, the Km was 2.6 ± 0.4 µM, the kcat was found to be 0.133 ± 0.01 s⁻¹ and the kcat/Km came to 51200 ± 4500 M⁻¹ s⁻¹.
